We go through three molecules from patent US20200157212A1 (Pfizer, published 2020).

Residue numbers refer to the chain shown, from its start.

T1: Rat ROBO2 on cells (rat, UniProt Q7TPD3 22-1469 (mouse entry))
T1 construct: overexpressed on HEK293 cells in flow cytometry; endogenous on rat SVZ neuronal explants in the SVZa assay
T1 chain: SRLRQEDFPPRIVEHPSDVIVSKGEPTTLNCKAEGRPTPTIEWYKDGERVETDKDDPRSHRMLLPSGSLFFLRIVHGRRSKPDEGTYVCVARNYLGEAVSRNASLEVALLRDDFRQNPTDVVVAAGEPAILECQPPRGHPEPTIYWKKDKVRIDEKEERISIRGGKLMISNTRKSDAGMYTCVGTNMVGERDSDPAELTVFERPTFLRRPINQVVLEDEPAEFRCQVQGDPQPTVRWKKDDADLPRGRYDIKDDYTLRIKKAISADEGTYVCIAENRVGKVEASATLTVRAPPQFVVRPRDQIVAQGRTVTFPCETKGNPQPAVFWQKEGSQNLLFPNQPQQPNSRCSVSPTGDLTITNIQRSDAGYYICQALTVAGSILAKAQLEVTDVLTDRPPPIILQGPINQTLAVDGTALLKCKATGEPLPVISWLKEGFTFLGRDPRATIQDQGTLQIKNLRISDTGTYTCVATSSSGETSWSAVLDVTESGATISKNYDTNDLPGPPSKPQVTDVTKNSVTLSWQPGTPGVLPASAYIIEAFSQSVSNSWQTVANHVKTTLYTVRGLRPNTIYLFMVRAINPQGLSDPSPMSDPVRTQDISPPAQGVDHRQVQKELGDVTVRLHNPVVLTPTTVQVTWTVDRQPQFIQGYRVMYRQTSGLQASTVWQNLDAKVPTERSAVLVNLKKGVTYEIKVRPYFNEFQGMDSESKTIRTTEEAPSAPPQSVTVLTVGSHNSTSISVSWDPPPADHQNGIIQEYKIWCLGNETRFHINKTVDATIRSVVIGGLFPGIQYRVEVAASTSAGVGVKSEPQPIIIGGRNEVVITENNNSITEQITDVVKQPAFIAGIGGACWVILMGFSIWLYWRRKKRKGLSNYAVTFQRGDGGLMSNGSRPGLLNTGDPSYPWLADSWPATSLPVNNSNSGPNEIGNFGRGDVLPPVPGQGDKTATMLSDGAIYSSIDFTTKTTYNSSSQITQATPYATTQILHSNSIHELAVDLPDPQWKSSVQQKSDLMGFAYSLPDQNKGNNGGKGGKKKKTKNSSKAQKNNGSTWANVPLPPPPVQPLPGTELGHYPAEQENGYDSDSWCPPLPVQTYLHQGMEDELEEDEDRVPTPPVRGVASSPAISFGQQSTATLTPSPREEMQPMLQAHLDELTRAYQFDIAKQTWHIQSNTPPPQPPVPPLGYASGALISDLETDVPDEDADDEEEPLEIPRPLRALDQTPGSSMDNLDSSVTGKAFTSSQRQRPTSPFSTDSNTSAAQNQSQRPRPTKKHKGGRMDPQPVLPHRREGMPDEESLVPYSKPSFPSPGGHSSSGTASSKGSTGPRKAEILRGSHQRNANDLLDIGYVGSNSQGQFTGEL

B1: 93H2 (antibody, human IgG1, kappa, V domains shown)
VH: EVQLVQSGAEVKKPGASVKVSCKASGYTFTGYYMHWVRQAPGQGLEWMGWINPNSGATNFPQKFQGRVTMTRDTSITTAYMDLSRLRSDDTAVYYCARESGDDAFDIWGQGTMVTVSS
VL: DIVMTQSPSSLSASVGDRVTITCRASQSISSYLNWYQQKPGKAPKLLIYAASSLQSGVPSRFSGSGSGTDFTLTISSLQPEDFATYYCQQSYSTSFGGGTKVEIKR
notes: also called parental 93H2; 93H2 mAb
B2: Abcs25 (antibody, human IgG1, kappa, V domains shown)
VH: B1 VH with N54K, S55D, A57D, N59E
VL: DIVMTQSPSSLSASVGDRVTITCRASQSISSYLNWYQQKPGKAPKLLIYAASSLQSGVPSRFSGSGSGTDFTLTISSLQPEDFATYYCQQSVGLSFGGGTKVEIKR
notes: chain-shuffled IgG
B3: Abcs35 (antibody, human IgG1, kappa)
heavy: EVQLVQSGAEVKKPGASVKVSCKASGYTFTGYYMHWVRQAPGQGLEWMGWINPKNGDTEFPQKFQGRVTMTRDTSITTAYMDLSRLRSDDTAVYYCARESGDDAFDIWGQGTMVTVSSASTKGPSVFPLAPSSKSTSGGTAALGCLVKDYFPEPVTVSWNSGALTSGVHTFPAVLQSSGLYSLSSVVTVPSSSLGTQTYICNVNHKPSNTKVDKKVEPKSCDKTHTCPPCPAPEAAGAPSVFLFPPKPKDTLMISRTPEVTCVVVDVSHEDPEVKFNWYVDGVEVHNAKTKPREEQYNSTYRVVSVLTVLHQDWLNGKEYKCKVSNKALPAPIEKTISKAKGQPREPQVYTLPPSREEMTKNQVSLTCLVKGFYPSDIAVEWESNGQPENNYKTTPPVLDSDGSFFLYSKLTVDKSRWQQGNVFSCSVMHEALHNHYTQKSLSLSPGK
light: DIVMTQSPSSLSASVGDRVTITCRASQSISSYLNWYQQKPGKAPKLLIYAASSLQSGVPSRFSGSGSGTDFTLTISSLQPEDFATYYCQQSVGLFFGGGTKVEIKRTVAAPSVFIFPPSDEQLKSGTASVVCLLNNFYPREAKVQWKVDNALQSGNSQESVTEQDSKDSTYSLSSTLTLSKADYEKHKVYACEVTHQGLSSPVTKSFNRGEC
notes: fully human IgG1; VH of Ab96 with VL of Ab123

The assay deals with T1, Rat ROBO2 on cells. The assay is described as follows: flow cytometry, HEK293 cells, average of n = 3. How it is done: Binding of the antibodies was detected using a secondary fluorochrome conjugated anti-human IgG F(ab′)₂ antibody and samples were analyzed on a Fortessa cytometer (BD Biosciences). The fold ROBO2 selectivity was calculated as the geometric mean fluorescence intensity (Geo MFI) with ROBO2 cells/Geo MFI with ROBO1 cells. A fold change higher than 3 was considered to be ROBO2 specific (Table 2, Fold Selectivity). Some affinity matured clones had increased ROBO1 reactivity, for example Abcs 55, CTI-R2-10 and CTIR2-13.
Based upon several criteria, Abcs25 and Abcs35 were selected for further characterization. Using flow cytometry, improvement in the binding EC₅₀ to human ROBO2 relative to the parental 93H2 was evaluated. Starting at 6.7 nM, 11-point, 3-fold dilution series were made for each antibody and used to stain HEK293 overexpressing human ROBO2 as described above for the ROBO2 fold selectivity (Example 2). […] In addition to measuring improved binding to human ROBO2, it was important to ensure that high affinity binding to both cynomolgus monkey ROBO2 and rat ROBO2 was maintained. Using HEK293 cells overexpressing either cynomolgus monkey ROBO2 or rat ROBO2, the relative dose-dependent binding of 93H2, Abcs25 and Abcs35 was evaluated as described above. High affinity binding to both cynomolgus monkey and rat ROBO2 was maintained in Abcs25 and Abcs35 (Table 4). […] Briefly, Abcs35 was immobilized to 300 resonance units (RU) on a CM5 chip. Association of ROBO2 Ig1-Ig2-His (ROBO2) was measured over 5 minutes and dissociation was followed for a period of 10 minutes.
Background: In flow cytometry, cells or beads pass a laser one at a time.
B1 registered an EC50 of 1200 pM.

For the molecule B2, the half-maximal effective concentration (EC50) turned out to be 62 pM. Turning to B3, the concentration for a half-maximal effect (EC50) was found to be 48 pM.

A word on the EC50: it is the concentration giving half of the maximal effect.
